Reference: patent US20250115677A1, “Anti-CEA Antibody Drug Conjugates and Methods of Use” (BeiGene Switzerland GmbH, priority 2022, published 2025)

Legend:
[1] = target: T1, cynoCEA (Cat.:CE5-C52H5, Acrobiosystem) (cyno); test: SPR (BIAcore T-200); antibody captured on anti-human IgG chip, antigen flowed (1.37-2150 nM)
T1 chain: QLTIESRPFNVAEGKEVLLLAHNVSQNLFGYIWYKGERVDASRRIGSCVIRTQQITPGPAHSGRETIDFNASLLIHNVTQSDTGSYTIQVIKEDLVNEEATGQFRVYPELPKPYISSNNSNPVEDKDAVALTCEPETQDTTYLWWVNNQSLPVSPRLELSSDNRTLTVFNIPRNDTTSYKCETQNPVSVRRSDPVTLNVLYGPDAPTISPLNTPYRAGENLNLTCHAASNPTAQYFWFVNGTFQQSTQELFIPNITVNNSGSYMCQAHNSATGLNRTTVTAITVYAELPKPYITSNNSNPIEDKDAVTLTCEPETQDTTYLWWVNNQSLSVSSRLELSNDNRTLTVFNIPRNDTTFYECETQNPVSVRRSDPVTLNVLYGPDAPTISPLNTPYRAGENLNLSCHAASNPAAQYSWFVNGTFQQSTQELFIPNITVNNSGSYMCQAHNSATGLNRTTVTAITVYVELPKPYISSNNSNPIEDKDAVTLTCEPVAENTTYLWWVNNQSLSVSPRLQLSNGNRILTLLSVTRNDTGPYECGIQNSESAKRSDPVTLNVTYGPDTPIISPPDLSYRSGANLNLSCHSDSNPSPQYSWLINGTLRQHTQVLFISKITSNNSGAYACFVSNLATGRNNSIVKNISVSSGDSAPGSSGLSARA

[2] = target: T2, human CEA on cells (MKN45, LOVO, NCI-H2122, LS174T, CT26/CEA) (human, UniProt P06731 35-685); test: flow cytometry on MKN45 cells, BGA5384 premixed with 0.50 ug/ml recombinant soluble CEA (competitor), anti-huFc-APC
T2 construct: Full-length human CEA, endogenous on tumour cell lines or transduced; also called native CEA on living cells; huCEA surface protein
T2 sequence: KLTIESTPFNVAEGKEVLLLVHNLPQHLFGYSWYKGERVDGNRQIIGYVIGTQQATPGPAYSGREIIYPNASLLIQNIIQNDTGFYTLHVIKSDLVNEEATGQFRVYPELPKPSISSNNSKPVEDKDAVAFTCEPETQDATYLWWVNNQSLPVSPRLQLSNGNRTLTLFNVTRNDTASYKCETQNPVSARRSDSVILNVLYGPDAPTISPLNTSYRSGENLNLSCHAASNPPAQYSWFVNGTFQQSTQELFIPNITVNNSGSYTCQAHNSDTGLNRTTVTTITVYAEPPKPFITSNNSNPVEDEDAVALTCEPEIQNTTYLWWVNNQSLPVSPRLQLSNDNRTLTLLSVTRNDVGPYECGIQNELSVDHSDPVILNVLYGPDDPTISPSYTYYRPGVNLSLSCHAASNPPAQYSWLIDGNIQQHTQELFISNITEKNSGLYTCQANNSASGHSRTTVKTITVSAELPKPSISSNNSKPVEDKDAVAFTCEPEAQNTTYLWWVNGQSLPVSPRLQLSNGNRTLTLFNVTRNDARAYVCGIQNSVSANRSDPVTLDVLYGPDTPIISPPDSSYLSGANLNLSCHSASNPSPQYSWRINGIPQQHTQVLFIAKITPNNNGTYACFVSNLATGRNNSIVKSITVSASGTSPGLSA
Method: (§1) The mixtures were then incubated with 2×10^5 CEA-expressing cells, such as MKN45 cells, for 30 minutes at 4° C. The cells were stained with secondary antibody anti-huFc-APC (Cat. No. 409320, BioLegend, USA) and analyzed by flow cytometry.

[3] = target: T2, human CEA on cells (MKN45, LOVO, …); test: flow cytometry on MKN45 cells, BGA5384 premixed with 2.00 ug/ml recombinant soluble CEA (competitor), anti-huFc-APC
Method: as §1

[4] = target: T2, human CEA on cells (MKN45, LOVO, …); test: flow cytometry (MFI) on CEA-expressing MKN45 cells
Method: For flow cytometry, CEA-expressing MKN45 cells (10^5 cells/well) were incubated with various concentrations of purified affinity-matured antibodies, followed by binding with Alexa Fluor-647-labeled anti-hu IgG Fc antibody (Cat. No. 409320, BioLegend, USA). Cell fluorescence was quantified using a flow cytometer (Guava easyCyte™ 8HT, Merck-Millipore, USA).

[5] = target: T3, CEACAM6 (bar group in Fig. 9B, flow cytometry) (human, UniProt P40199); test: flow cytometry, Alexa Fluor 647 anti-human IgG Fc
T3 construct: on cells (flow cytometry)
T3 sequence (single chain, looked up): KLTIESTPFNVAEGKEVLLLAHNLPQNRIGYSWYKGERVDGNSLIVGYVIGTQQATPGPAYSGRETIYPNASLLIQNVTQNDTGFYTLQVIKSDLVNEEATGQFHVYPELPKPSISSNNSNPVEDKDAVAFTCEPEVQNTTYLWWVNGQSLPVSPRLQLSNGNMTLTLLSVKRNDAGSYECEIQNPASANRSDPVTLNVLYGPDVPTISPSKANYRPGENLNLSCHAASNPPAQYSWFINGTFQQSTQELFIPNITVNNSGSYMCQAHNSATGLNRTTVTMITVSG
Method: Cell fluorescence was quantified using a flow cytometer (Guava easyCyte™ 8HT, Merck-Millipore, USA). For antigen ELISA, CEACAM1(SEQ ID NO:64) (Cat. No. 10822-H08H, Sino Biological, China), CHIM (SEQ ID NO:63), CEA (SEQ ID NO:55) or CEACAM6 (SEQ ID NO:57) were coated in 96-well plates at a concentration of 10 μg/ml overnight at 4° C.

[6] = target: T2, human CEA on cells (MKN45, LOVO, …); test: flow cytometry on MKN45 cells, BGA5384 premixed with 1.00 ug/ml recombinant soluble CEA (competitor), anti-huFc-APC
Method: as §1

B1: BGA5384 (antibody, human IgG1, kappa, V domains shown)
VH: QVQLVQSGAEVKKPGASVKVSCKASGYIFTSYYLHWVRQAPGQGLEWIGYINPQTGKTSYAQKFQGRVTMTRDTSTSTVYMELSSLRSEDTAVYYCAREYGNYNYPLDYWGQGTLVTVSS
VL: DIQMTQSPSSLSASVGDRVTITCRASENQYGYLAWYQQKPGKVPKLLIYNYKNLVEGVPSRFSGSGSGTDFTLTISSLQPEDVATYYCQHHLGTPYTFGQGTKVEIKR
notes: BGA6710 with Y57K in VH; human IgG1 format; also called BGA7592-1K
With B1 the Kd [1] was 19.9 nM, the “EC50 (read off the curve)” value [2] was ~1 µg/mL and the “EC50 (read off the curve)” value [3] was ~2 µg/mL. For the same binder, the EC50 [4] was 2.92 µg/mL, the binding result [5] was “no binding” and the “EC50 (read off the curve)” value [6] was ~2 µg/mL.
